Assay results: paper PMC4277747 (Journal of the American Chemical Society, 2014)
Read-outs that look alike come from different tables or passages of the source.

Key:
Experiment in all cases: AUC
AUC [1] = target: the molecule itself
AUC [2] = target: the molecule itself; remark: listed apart in the source
AUC [3] = target: the molecule itself; remark: listed apart in the source

## KRKKQKRKRAKQLRKRLQALEWQLAQIRKELQAAEKEEAQIEE (designed binder) [APHiii (APH3) fused to maltose binding protein (MBP)]
AUC [1]
  stoichiometry N: 2
AUC [2]
  MW (global fit)/MW (calc., expected dimer mass): 0.94

## KEEKQIEKELKQIEKELQAIEWRLAQLRKRLQALRKRKAQKRE (designed binder) [APHi fused to maltose binding protein (MBP)]
AUC [1]
  stoichiometry N: > 2
AUC [2]
  MW (global fit)/MW (calc., expected dimer mass): 1.7

## KEKKQLRKELKQLEKELQALRWRLAQIEKRLQAIRKRLAQKEE (designed binder) [APHiv fused to maltose binding protein (MBP)]
AUC [1]
  stoichiometry N: > 2
AUC [2]
  MW (global fit)/MW (calc., expected dimer mass): 1.23

## KQLKQIEKRLKQIEKRLQAKEWEKAQLRKELQALRKKLAQLRE (designed binder) [APHvi (APH4) fused to maltose binding protein (MBP)]
AUC [1]
  stoichiometry N: 2
AUC [2]
  MW (global fit)/MW (calc., expected dimer mass): 0.96

## KQLEKELKQLEKELQAIEKQLAQLQWKAQARKKKLAQLKKKLQA (designed binder) [APH fused to maltose binding protein (MBP)]
AUC [3]
  stoichiometry N: 2
